Measured values reported in patent publication US20200157174A1 (DRAGONFLY THERAPEUTICS, published 2020).
Numbering of substitutions follows the chain as printed.

Key:
Experiment in all cases: ELISA on coated NKG2D-Fc;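 further: titrated NKG2D-binding domains on plate-bound human, mouse or cynomolgus NKG2D ectodomain–human IgG1 Fc fusions, detected with HRP anti-human kappa secondary and TMB, absorbance at 450 nm corrected at 540 nm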
[1] = molecular target: T1, recombinant cynomolgus NKG2D-Fc (cynomolgus; human, UniProt P61252 73-216)
T1 construct: extracellular domain; also called cynomolgus NKG2D-Fc fusion protein; not shown: human IgG1 Fc domain
T1 sequence (looked up): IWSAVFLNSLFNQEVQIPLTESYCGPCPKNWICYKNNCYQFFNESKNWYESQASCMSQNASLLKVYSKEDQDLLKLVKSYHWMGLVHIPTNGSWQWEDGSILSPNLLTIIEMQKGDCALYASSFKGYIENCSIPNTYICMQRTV

[2] = molecular target: T2, recombinant mouse NKG2D-Fc (mouse; human, UniProt O54709 90-232)
T2 construct: extracellular domain; also called mouse NKG2D-Fc fusion protein; Mouse NKG2D-Fc-biotin; not shown: human IgG1 Fc domain
T2 sequence (looked up): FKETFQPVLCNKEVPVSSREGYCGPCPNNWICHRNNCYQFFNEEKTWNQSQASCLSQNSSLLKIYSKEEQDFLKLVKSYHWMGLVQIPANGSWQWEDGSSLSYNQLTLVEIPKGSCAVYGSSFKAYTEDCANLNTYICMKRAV

[3] = molecular target: T3, recombinant human NKG2D-Fc (human, UniProt P26718 73-216)
T3 construct: extracellular domain; also called human NKG2D-Fc fusion protein; NKG2D-Fc-biotin; not shown: human IgG1 Fc domain
T3 sequence (looked up): T1 sequence (looked up) with N43D, I133T

Measured: binding result

B1: ADI-27749 (antibody, V domains shown)
VH: EVQLVESGGGLVKPGGSLRLSCAASGFTFSSYSMNWVRQAPGKGLEWVSSISSSSSYIYYADSVKGRFTISRDNAKNSLYLQMNSLRAEDTAVYYCARGAPMGAAAGWFDPWGQGTLVTVSS
VL: DIQMTQSPSSVSASVGDRVTITCRASQGISSWLAWYQQKPGKAPKLLIYAASSLQSGVPSRFSGSGSGTDFTLTISSLQPEDFATYYCQQGVSFPRTFGGGTKVEIK
notes: also called A49
binds: all assays above

B2: ADI-29378 (antibody, V domains shown)
VH: QVQLVQSGAEVKKPGASVKVSCKASGYTFTSYYMHWVRQAPGQGLEWMGIINPSGGSTSYAQKFQGRVTMTRDTSTSTVYMELSSLRSEDTAVYYCAREGAGFAYGMDYYYMDVWGKGTTVTVSS
VL: EIVLTQSPATLSLSPGERATLSCRASQSVSSYLAWYQQKPGQAPRLLIYDASNRATGIPARFSGSGSGTDFTLTISSLEPEDFAVYYCQQSDNWPFTFGGGTKVEIK
notes: also called E78
binds: all assays above
